From patent publication US20240218071A1

How the values were obtained:
[1] = target: P17-Fc fusion protein (human CD40 extracellular domain fused to human IgG1 Fc) (human) (UniProt P25942); assay: ELISA on P17-Fc, positive control
[2] = target: P17-Fc fusion protein (human CD40 extracellular domain fused to human IgG1 Fc) (human) (UniProt P25942); assay: ELISA, P17-Fc against titrated antibody
[3] = target: biotinylated P17-Fc fusion protein (human) (UniProt P25942); assay: ELISA, biotinylated P17-Fc against titrated antibody
biotinylated P17-Fc fusion protein (human), sequence (P25942 21-193 limits assumed): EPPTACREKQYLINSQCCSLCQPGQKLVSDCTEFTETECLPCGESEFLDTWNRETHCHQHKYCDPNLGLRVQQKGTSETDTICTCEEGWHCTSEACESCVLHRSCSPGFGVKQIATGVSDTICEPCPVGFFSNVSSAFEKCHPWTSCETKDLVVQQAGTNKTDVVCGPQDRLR

[4] = target: P17-Fc fusion protein (human CD40 extracellular domain fused to human IgG1 Fc) (human) (UniProt P25942); assay: ELISA, unbiotinylated P17-Fc against titrated antibody
[5] = target: human CD40 expressed on the cell surface (human) (UniProt P25942); assay: flow cytometry on CHO-K-huCD40 cells, APC anti-human IgG Fc secondary antibody
human CD40 expressed on the cell surface (human), sequence (P25942 21-277): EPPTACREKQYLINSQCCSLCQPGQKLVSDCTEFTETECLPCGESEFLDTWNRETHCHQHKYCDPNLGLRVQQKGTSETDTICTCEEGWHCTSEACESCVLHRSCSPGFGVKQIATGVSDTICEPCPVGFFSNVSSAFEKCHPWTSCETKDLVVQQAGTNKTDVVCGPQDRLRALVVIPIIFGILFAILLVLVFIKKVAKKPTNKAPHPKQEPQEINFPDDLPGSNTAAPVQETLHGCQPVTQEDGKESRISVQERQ

[6] = target: human CD40 expressed on the cell surface (human) (UniProt P25942); assay: blocking assay by flow cytometry: CHO-K-huCD40 cells with titrated antibody, then CD40L-biotin (200 ng/mL) and PE-streptavidin; blocked ligand CD40L

P17-Fc fusion protein (human CD40 extracellular domain fused to human IgG1 Fc) (human), sequence (P25942 21-193 limits assumed): as the sequence (P25942 21-193 limits assumed) above

B1: Bleslumab (antibody, INN chains, looked up, V domains shown)
VH: QLQLQESGPGLLKPSETLSLTCTVSGGSISSPGYYGGWIRQPPGKGLEWIGSIYKSGSTYHNPSLKSRVTISVDTSKNQFSLKLSSVTAADTAVYYCTRPVVRYFGWFDPWGQGTLVTVSS
VL: AIQLTQSPSSLSASVGDRVTITCRASQGISSALAWYQQKPGKAPKLLIYDASNLESGVPSRFSGSGSGTDFTLTISSLQPEDFATYYCQQFNSYPTFGQGTKVEIK
Binder B1 has an EC50 [1] of 0.047 µg/mL, an EC50 (read off the curve) [2] of 0.2 µg/mL and an EC50 (read off the curve) [3] of 0.08 µg/mL. The EC50 (read off the curve) [4] was 0.08 µg/mL, the EC50 (read off the curve) [5] was 0.7 µg/mL and the IC50 (read off the curve) [6] was 1 µg/mL.

B2: Dacetuzumab (antibody, INN chains, looked up, V domains shown)
VH: EVQLVESGGGLVQPGGSLRLSCAASGYSFTGYYIHWVRQAPGKGLEWVARVIPNAGGTSYNQKFKGRFTLSVDNSKNTAYLQMNSLRAEDTAVYYCAREGIYWWGQGTLVTVSS
VL: DIQMTQSPSSLSASVGDRVTITCRSSQSLVHSNGNTFLHWYQQKPGKAPKLLIYTVSNRFSGVPSRFSGSGSGTDFTLTISSLQPEDFATYFCSQTTHVPWTFGQGTKVEIKR
Work on B2 yielded an EC50 (read off the curve) [2] of 0.3 µg/mL, an EC50 (read off the curve) [3] of 0.08 µg/mL and an EC50 (read off the curve) [4] of 0.08 µg/mL.
